# Reference: patent US5688488A, “Composition and method for tumor imaging” (priority 1995, dated 1997)
# Like-named read-outs stand apart in the source and are kept apart here.
# Columns and labels:
# [1] = physchem; format: physicochemical; details: water, pKa
# Description: The crude product contained a mixture of folate-deferoxamine conjugates, wherein the folate is linked to DF via its α-carboxyl or γ-carboxyl group as well as unreacted folic acid. The two isomers of DF-folate were isolated and purified on a weak anion-exchange column. Briefly, the product mixture was loaded onto a 1.5 cm×15 cm […] column pre-equilibrated in 10 mM NH4 CO3 buffer (pH 7.9). The column was washed with 50 mL 10 mM NH4 HCO3 and then eluted with a 500 mL gradient of 80-180 mM NH4 HCO3 followed by 150 mL 500 mM NH4 HCO3. Three folate-containing peaks were obtained as detected by UV absorbance at 363 nm. Each peak was collected, lyophilized, and redissolved in deionized water. The purity of each component was confirmed by reverse-phase high pressure liquid chromatography (HPLC) with a 10 mm×250 mm Licrosorb RP-18 column (Altech, Deerfield, Ill.), and evaluation of the conjugates' molecular weights was determined by fast-atom bombardment mass spectroscopy (FAB-MS). The characteristic pKa values of the two DF-folate isomers were obtained by titration on a pH/ion analyzer (Corning, Corning, N.Y.). […] Since the two isoforms of DF-folate conjugate retain either a free γ-carboxyl or free α-carboxyl, they can be distinguished from each other and from unreacted folic acid by their characteristic pKa values, which were determined by titration.
# [2] = target: T1, KB cell folate-binding protein (Homo sapiens, UniProt P15328); assay: Competitive binding assay using [^3 H]folic acid on KB cells; details: equimolar amount (100 pmoles each), 30 min, 4° C.
# T1 construct: endogenous in cells; host or cells: KB cells
# T1 sequence (P15328 25-257): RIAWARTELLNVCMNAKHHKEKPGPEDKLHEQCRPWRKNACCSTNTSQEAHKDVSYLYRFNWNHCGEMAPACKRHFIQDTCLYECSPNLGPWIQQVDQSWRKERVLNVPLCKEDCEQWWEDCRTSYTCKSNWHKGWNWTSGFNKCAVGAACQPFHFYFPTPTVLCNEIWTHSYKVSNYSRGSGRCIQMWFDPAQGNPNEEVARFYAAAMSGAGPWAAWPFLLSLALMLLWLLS
# Description: (§1) Cell Culture. KB cells, a human nasopharyngeal epidermal carcinoma cell line that greatly overexpresses the folate binding protein, were cultured continuously as a monolayer at 37° C. in a humidified atmosphere containing 5% CO2 in folate-deficient modified Eagle's medium (FDMEM) (a folate-free modified Eagle's medium supplemented with 10% (v/v) heat-inactivated fetal calf serum as the only source of folate) containing penicillin (50 units/mL), streptomycin (50 μg/mL), and 2 mM L-glutamine. The final folate concentration in the complete FDMEM is the physiological range (~2 nM). 48 h prior to each experiment, the cells were transferred to 35 mm culture dishes at 5×10^5 cells per dish and grown to ~80% confluent.
# The affinity of the DF-folate(α) and DF-folate(γ) conjugates for the KB cell folate-binding protein was evaluated in a competitive binding assay using [^3 H]folic acid as the receptor ligand. Briefly, 100 pmoles of [^3 H]folic acid and 100 pmoles of either DF-folate(α) or DF-folate(γ) dissolved in phosphate-buffered saline (PBS) were added to KB cells grown ~80% confluence in 1 mL FDMEM in 35 mm culture dishes. Following a 30 min incubation at 4° C., the cells were washed 3 times with cold PBS. Cell-associated [^3 H] folic acid was then determined by liquid scintillation counting, and the cellular protein content was evaluated by the BCA protein assay.
# [3] = system: human KB cells tumors; format: in vivo, athymic mice; details: 29.6 mg tumor; ~45 hours post-injection
# Description: To test the tumor-cell-selective uptake of metal-labeled radiopharmaceuticals in vivo, ~180 μCi of ^67 Ga-deferoxamine-folate conjugate (See FIG. 3) was administered to two tumor-bearing athymic mice. Tumors were generated in athymic mice by subcutaneous injecting human KB cells into the dorsal-lateral region of the mice according to procedures familiar to those of ordinary skill in the art. After establishment of tumors in the mice, ~180 μCi of ^67 Ga-deferoxamine-folate conjugate was administered intravenously. Approximately 45 hours post-injection, gamma images were obtained and the tissue distribution of ^67 Ga quantitated.
# To test the viability of the FBP-receptor as a pathway for achieving tumor-cell-selective uptake of metal-labeled radiopharmaceuticals in vivo, ~180 μCi of ^67 Ga-deferoxamine-folate conjugate was administered intravenously to two tumor-bearing athymic mice via the femoral vein nine days after subcutaneous injection of 4×10^6 human KB cells. At approximately 45 hours post-injection, gamma images were obtained, the animals were sacrificed and dissected, and the tissue distribution of tracer was quantified by gamma counting (after storage of the weighted tissue samples for decay to a suitable ^67 Ga count rate). […] The tumor to blood ratio was 1500 and 1185 and the tumor to muscle ratio was 170 and 288 for each respective mouse.
# [4] = system: KB cells; assay: Uptake of ^67 Ga-DF-folate complex by cultured KB cells; format: cell-based, human; details: for saturating level of cellular uptake, of the total radioactivity added: concentration dependence
# Description: as §1
# Because folate and its conjugates bind to cell surface receptors at 4° C., but are capable of endocytosis only at higher temperatures, it is possible to separately evaluate the kinetics of binding the internalization of folate by measuring the rates of folate conjugate uptake at the two temperatures. […] By the end of the 30 min incubation, binding approached to saturation with ~18% of the initial radioactivity found associated with a cell surface.
# Incubation at 37° C., a temperature which permits both binding and endocytosis, yielded similar kinetic results, however, maximal uptake reached 32% of the total conjugate added. Presumably, the difference in magnitude of the two cellular uptake curves reflects the ability of the folate receptor to internalize the conjugate and then recycle to the cell surface in its unoccupied form. […] This latter result is consistent with the inability of the α-conjugate to compete with free folate for the cell surface receptor.
# To verify the involvement of a cell surface folate receptor in mediating the uptake of ^67 Ga-DF-folate(γ), binding and internalization of the complex were evaluated as a function of the complex's concentration. Cellular uptake of ^67 Ga-DF-folate(γ) was concentration dependent at both 4° C. and 37° C., saturating at levels of 20% and 35% of the total radioactivity added, respectively.
# [5] = system: Subcutaneous KB Cell Tumors
# [6] = system: KB cells (a human nasopharyngeal cell line); assay: Uptake of ^125 I-labeled folate-labeled protein by KB cells; format: cell-based; details: procedure of Example 17
# [7] = system: KB Tumors; details: mouse, in vivo, iv
# [8] = system: KB Tumors; assay: Biodistribution of ^125 I-RNase-Folate conjugate and ^125 I-RNase control following I.V. administration to athymic mice with KB tumors; details: folate-free diet
molecule,measurement,setting,value
CC(=O)N(O)CCCCCNC(=O)CCC(=O)N(O)CCCCCNC(=O)CCC(=O)N(O)CCCCCNC(=O)[C@H](CCC(=O)O)NC(=O)c1ccc(NCc2cnc3nc(N)[nH]c(=O)c3n2)cc1 [DF-folate(α)],pKa,[1],2.5
same,decrease in bound [^3 H]folic acid,[2],no ability to compete
CC(=O)N(O)CCCCCNC(=O)CCC(=O)N(O)CCCCCNC(=O)CCC(=O)N(O)CCCCCNC(=O)CC[C@H](NC(=O)c1ccc(NCc2cnc3nc(N)[nH]c(=O)c3n2)cc1)C(=O)O [DF-folate(γ)],pKa,[1],4.5
same,decrease in bound [^3 H]folic acid,[2],50%
CC(=O)N([O-])CCCCCNC(=O)CCC(=O)N([O-])CCCCCNC(=O)CCC(=O)N([O-])CCCCCNC(=O)CCC(NC(=O)c1ccc(NCc2cnc3nc(N)[nH]c(=O)c3n2)cc1)C(=O)O.[67Ga+3] (stereo not shown) [^67 Ga-DF-Folate],detection of tumor by gamma scintigraphy,[3],readily detected by gamma scintigraphy
same,time to half maximal binding,[4]; 4° C.,~ 3 min
same,"saturating level of cellular uptake, of the total radioactivity added",[4]; 4° C.,20%
same,initial radioactivity associated with cell surface,"[4]; 4° C., end of 30 min incubation",~ 18%
same,"maximal uptake, of the total conjugate added",[4]; 37° C.,32%
same,"saturating level of cellular uptake, of the total radioactivity added",[4]; 37° C.,35%
same,initial cellular uptake retained,[4]; 100-fold molar excess of free folate,0.5%
same,decrease in uptake,[4]; equimolar unlabeled folic acid,50%
same,imaging of tumors in vivo with a gamma camera,[5]; 8 mm tumors,8 mm tumors were easily imaged in vivo
same,Tumor-to-Non-target Ratio: Tumor/blood,"[5]; mouse, in vivo, iv, 270 min",48 ± 5
same,Tumor-to-Non-target Ratio: Tumor/kidney,"[5]; mouse, in vivo, iv, 270 min",1.4 ± 0.5
same,Tumor-to-Non-target Ratio: Tumor/liver,"[5]; mouse, in vivo, iv, 270 min",5.1 ± 0.5
same,Tumor-to-Non-target Ratio: Tumor/muscle,"[5]; mouse, in vivo, iv, 270 min",82 ± 16
same,Percentage of Injected Dose per Gram of Tissue: Blood,"[5]; mouse, in vivo, iv, 4.5 h",0.046 ± 0.009 % of injected dose per gram
same,Percentage of Injected Dose per Gram of Tissue: Heart,"[5]; mouse, in vivo, iv, 4.5 h",0.025 ± 0.005 % of injected dose per gram
same,Percentage of Injected Dose per Gram of Tissue: Kidney,"[5]; mouse, in vivo, iv, 4.5 h",1.79 ± 0.82 % of injected dose per gram
same,Percentage of Injected Dose per Gram of Tissue: Liver,"[5]; mouse, in vivo, iv, 4.5 h",0.43 ± 0.03 % of injected dose per gram
same,Percentage of Injected Dose per Gram of Tissue: Lungs,"[5]; mouse, in vivo, iv, 4.5 h",0.052 ± 0.010 % of injected dose per gram
same,Percentage of Injected Dose per Gram of Tissue: Muscle,"[5]; mouse, in vivo, iv, 4.5 h",0.028 ± 0.005 % of injected dose per gram
same,Percentage of Injected Dose per Gram of Tissue: Tumor,"[5]; mouse, in vivo, iv, 4.5 h",2.22 ± 0.36 % of injected dose per gram
"SBTI: soybean trypsin inhibitor, folate-ligated as in Example 17 (conjugate, UniProt P01070 25-205, looked up, folate conjugated) Trypsin inhibitor A: DFVLDNEGNPLENGGTYYILSDITAFGGIRAAPTGNERCPLTVVQSRNELDKGIGTIISSPYRIRFIAEGHPLSLKFDSFAVIMLCVGIPTEWSVVEDLPEGPAVKIGENKDAMDGWFRLERVSDDEFNNYKLVFCPQQAEDDKCGDIGISIDHDDGTRRLVVSKNKPLVVQFQKLDKESL",uptake of SBTI by KB cells,[6],Folate ligation was again demonstrated to be essential for uptake
"^125 I-RNase-Folate: ^125 I labeled ribonuclease-folate conjugate (conjugate, UniProt P61823 27-150, looked up, 125I label; folate conjugated) Ribonuclease pancreatic: KETAAAKFERQHMDSSTSAASSSNYCNQMMKSRNLTKDRCKPVNTFVHESLADVQAVCSQKNVACKNGQTNCYQSYSTMSITDCRETGSSKYPNCAYKTTQANKHIIVACEGNPYVPVHFDASV",Percentage of Injected Dose per Gram: Blood,[7]; 1 h,5.34 ± 1.07 % of injected dose per gram
same,Percentage of Injected Dose per Gram: Bone,[7]; 1 h,3.20 ± 0.23 % of injected dose per gram
same,Percentage of Injected Dose per Gram: Heart,[7]; 1 h,2.01 ± 0.22 % of injected dose per gram
same,Percentage of Injected Dose per Gram: Intestines,[7]; 1 h,2.03 ± 0.28 % of injected dose per gram
same,Percentage of Injected Dose per Gram: Kidney,[7]; 1 h,16.08 ± 2.76 % of injected dose per gram
same,Percentage of Injected Dose per Gram: Liver,[7]; 1 h,9.78 ± 1.11 % of injected dose per gram
same,Percentage of Injected Dose per Gram: Lungs,[7]; 1 h,4.19 ± 0.61 % of injected dose per gram
same,Percentage of Injected Dose per Gram: Muscle,[7]; 1 h,1.73 ± 0.32 % of injected dose per gram
same,Percentage of Injected Dose per Gram: Spleen,[7]; 1 h,9.94 ± 1.37 % of injected dose per gram
same,Percentage of Injected Dose per Gram: Stomach,[7]; 1 h,21.07 ± 2.57 % of injected dose per gram
same,Percentage of Injected Dose per Gram: Testes,[7]; 1 h,1.50 ± 0.18 % of injected dose per gram
same,Percentage of Injected Dose per Gram: Tumor,[7]; 1 h,5.35 ± 0.54 % of injected dose per gram
same,Tumor/Blood,[7]; 60 min,1.02 ± 0.16
same,Tumor/Muscle,[7]; 60 min,3.14 ± 0.43
same,Percentage of Injected Dose per Gram: Blood,[7]; 4 h,2.30 ± 0.62 % of injected dose per gram
same,Percentage of Injected Dose per Gram: Bone,[7]; 4 h,1.17 ± 0.28 % of injected dose per gram
same,Percentage of Injected Dose per Gram: Heart,[7]; 4 h,0.93 ± 0.39 % of injected dose per gram
same,Percentage of Injected Dose per Gram: Intestines,[7]; 4 h,0.95 ± 0.16 % of injected dose per gram
same,Percentage of Injected Dose per Gram: Kidney,[7]; 4 h,5.11 ± 1.27 % of injected dose per gram
same,Percentage of Injected Dose per Gram: Liver,[7]; 4 h,3.29 ± 0.77 % of injected dose per gram
same,Percentage of Injected Dose per Gram: Lungs,[7]; 4 h,1.97 ± 0.77 % of injected dose per gram
same,Percentage of Injected Dose per Gram: Muscle,[7]; 4 h,0.98 ± 0.54 % of injected dose per gram
same,Percentage of Injected Dose per Gram: Spleen,[7]; 4 h,2.78 ± 0.73 % of injected dose per gram
same,Percentage of Injected Dose per Gram: Stomach,[7]; 4 h,26.45 ± 8.05 % of injected dose per gram
same,Percentage of Injected Dose per Gram: Testes,[7]; 4 h,1.0 ± 0.15 % of injected dose per gram
same,Tumor/Blood,[7]; 1440 min,11.88 ± 3.71
same,Tumor/Muscle,[7]; 1440 min,32.6 ± 6.7
same,Percentage of Injected Dose per Gram: Blood,[7]; 24 h,0.04 ± 0.01 % of injected dose per gram
same,Percentage of Injected Dose per Gram: Bone,[7]; 24 h,0.09 ± 0.03 % of injected dose per gram
same,Percentage of Injected Dose per Gram: Heart,[7]; 24 h,0.024 ± 0.006 % of injected dose per gram
same,Percentage of Injected Dose per Gram: Intestines,[7]; 24 h,0.05 ± 0.006 % of injected dose per gram
same,Percentage of Injected Dose per Gram: Kidney,[7]; 24 h,0.72 ± 0.07 % of injected dose per gram
same,Percentage of Injected Dose per Gram: Liver,[7]; 24 h,0.38 ± 0.03 % of injected dose per gram
same,Percentage of Injected Dose per Gram: Lungs,[7]; 24 h,0.04 ± 0.01 % of injected dose per gram
same,Percentage of Injected Dose per Gram: Muscle,[7]; 24 h,0.013 ± 0.002 % of injected dose per gram
same,Percentage of Injected Dose per Gram: Spleen,[7]; 24 h,0.23 ± 0.04 % of injected dose per gram
same,Percentage of Injected Dose per Gram: Stomach,[7]; 24 h,0.26 ± 0.14 % of injected dose per gram
same,Percentage of Injected Dose per Gram: Testes,[7]; 24 h,0.021 ± 0.004 % of injected dose per gram
same,Percentage of Injected Dose per Gram: Tumor,[7]; 24 h,0.41 ± 0.02 % of injected dose per gram
same,Percentage of Injected Dose per Gram: Brain,[8]; 1 hour after i.v.,0.29 ± 0.04 % of injected dose per gram
same,Percentage of Injected Dose per Gram: Brain,[8]; 4 hours after i.v.,0.19 ± 0.14 % of injected dose per gram
same,Percentage of Injected Dose per Gram: Brain,[8]; 24 hours after i.v.,0.007 ± 0.001 % of injected dose per gram
